Laboratory results as given in PMC8055535.

Target: light-dependent protochlorophyllide oxidoreductase (LPOR), Zea mays (Zea mays (endogenous in maize etioplasts))
Test: cryo-EM structure; electron cryo-tomography and subtomogram averaging of membrane tubes from ruptured maize etioplasts, native membranes; low-salt pH 8.0 buffer with 150 mM trehalose in place of sorbitol; tube averages at 18.2 and 18.1 Å, sub-boxes of dimers at 9 Å

stoichiometry N: 2
Substance: light-dependent protochlorophyllide oxidoreductase (LPOR), Zea mays (enzyme)
